Results on two molecules are retold here after paper PMC7468127, “Structural basis of redox modulation on chloroplast ATP synthase” (Communications Biology, 2020).

The data set “cryo-EM structure” deals with the molecule itself. Put plainly: cryo-EM structure.
Data set [1] concerns the target T1, chloroplast ATP synthase (CF1FO) γ subunit (Spinacia oleracea, UniProt P05435 42-364, disulfide γCys240-γCys246 in the oxidized (IBZ) sample; free cysteines in the reduced (DTT) sample).
T1 construct: ATP synthase gamma chain, chloroplastic, Spinacia oleracea; endogenous subunit of the purified complex; One molecule for both redox states; also called central shaft γ subunit; source: purified from spinach leaves as part of the CF1FO complex (ammonium sulfate, sucrose gradient, anion exchange, SEC)
T1 sequence (looked up): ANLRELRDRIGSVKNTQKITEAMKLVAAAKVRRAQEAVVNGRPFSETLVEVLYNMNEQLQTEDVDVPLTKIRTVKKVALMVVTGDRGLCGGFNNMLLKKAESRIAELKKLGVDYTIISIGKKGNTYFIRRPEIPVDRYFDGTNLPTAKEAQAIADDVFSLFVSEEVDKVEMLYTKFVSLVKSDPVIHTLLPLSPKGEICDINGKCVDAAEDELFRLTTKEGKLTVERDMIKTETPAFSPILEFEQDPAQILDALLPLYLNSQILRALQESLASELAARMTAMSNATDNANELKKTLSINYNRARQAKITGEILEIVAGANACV
Kind of data set: cryo-EM structure. Particulars: both partners purified.

B1: chloroplast ATP synthase (CF1FO) subunit c (c14 ring) (natural protein, Spinacia oleracea, UniProt P69447 1-81, looked up)
chain: MNPLIAAASVIAAGLAVGLASIGPGVGQGTAAGQAVEGIARQPEAEGKIRGTLLLSLAFMEALTIYGLVVALALLFANPFV
notes: ATP synthase subunit c, chloroplastic, Spinacia oleracea; endogenous subunit of the purified complex; also called c ring; c-ring rotor; source: purified from spinach leaves as part of the CF1FO complex (ammonium sulfate, sucrose gradient, anion exchange, SEC); copies: 14
In general, stoichiometry N refers to a count of units in the complex or per binding partner. In the case of B1, the “stoichiometry N” value in the data set “cryo-EM structure” was 14.

B2: chloroplast ATP synthase (CF1FO) ε subunit (natural protein, Spinacia oleracea, UniProt P00833 1-134, looked up)
chain: MTLNLCVLTPNRSIWNSEVKEIILSTNSGQIGVLPNHAPTATAVDIGILRIRLNDQWLTLALMGGFARIGNNEITILVNDAERGSDIDPQEAQQTLEIAEANLRKAEGKRQKIEANLALRRARTRVEASNTISS
notes: ATP synthase epsilon chain, chloroplastic, Spinacia oleracea; endogenous subunit of the purified complex; source: purified from spinach leaves as part of the CF1FO complex (ammonium sulfate, sucrose gradient, anion exchange, SEC)
With B2, the binding result in data set [1] is on record as “binds”.
